Measured values: patent publication US20240417463A1 (ADAGENE PTE, published 2024)
Where a chain is given by its changes, count along the chain named.

Assays:
[1] = molecular target: human CD47 on the cell surface (CEM, Raji and other human tumor cells, human RBCs) (human) (UniProt Q08722); test: flow cytometry, human RBCs, batch 2
[2] = molecular target: human CD47 on the cell surface (CEM, Raji and other human tumor cells, human RBCs) (human) (UniProt Q08722)
[3] = molecular target: T1, human CD47 on the cell surface (CEM, Raji and other human tumor cells, human RBCs) (human, UniProt Q08722 19-323); test: cell-based or functional assay
[4] = molecular target: T1, human CD47 on the cell surface (CEM, …); test: flow cytometry, CEM cells, batch 2; CEM tumor cells, batch 2
[5] = molecular target: T1, human CD47 on the cell surface (CEM, …); test: flow cytometry, Raji cells, batch 3; Raji tumor cells, batch 3
[6] = molecular target: T2, hCD47-ECD/Fc protein (Sinobiological) (human, UniProt Q08722 19-139, biotinylated in the Octet assay, sites not stated); test: BLI (Octet RED96), biotin-hCD47-ECD/Fc on SA sensors, 1:1 model;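 further: test antibodies as analytes, 300 s association then 300 s dissociation in running buffer, with benchmark reference antibodies run as controls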
T2 construct: extracellular domain; Bought protein; also called human CD47-Fc antigen; recombinant hCD47-ECD/Fc; not shown: Fc part of the bought fusion protein

[7] = molecular target: T2, hCD47-ECD/Fc protein (Sinobiological); test: ELISA, coated hCD47-ECD/Fc
[8] = molecular target: T2, hCD47-ECD/Fc protein (Sinobiological); test: competition ELISA vs biotin-hSIRPα-ECD/His on coated hCD47-ECD/Fc, experiment 2
[9] = molecular target: T2, hCD47-ECD/Fc protein (Sinobiological); test: BLI (Octet RED96), biotin-hCD47-ECD/Fc on SA sensors, 1:1 model; ForteBio BLI affinity ranking, not ELISA

Isotype control (RBC binding, Table 15) (antibody)
max MFI [1]: 105 MFI

Neg ctrl (antibody)
% of events double-positive for CFSE-Raji and BMQC-Jurkat (cell clustering), antibody at 100 nM [2]: 10.3%

B1: TAC2407 (antibody, V domains shown)
VH: EVQLVESGGGLVKPGGSLRLSCAASGLTFERAWMNWVRQAPGKGLEWVGRIKRKTDGETTDYAAPVKGRFSISRDDSKNTLYLQMNSLKTEDTAVYYCAGSNRAFDIWGQGTMVTVSS
VL: DIVMTQSPDSLAVSLGERATINCKSSQSVLYAGNNRNYLAWYQQKPGQPPKLLINQASTRASGVPDRFSGSGSGTEFTLIISSLQAEDVAIYYCQQYYTPPLAFGGGTKLEIK
notes: Benchmark anti-CD47 antibody; also called 13H3; TJC4
EC50 of macrophage phagocytosis of CEM cells, donor A [3]: 4.4 nM
EC50 of macrophage phagocytosis of CEM cells, donor B [3]: 0.83 nM
Max. Phagocytosis (%), donor A [3]: 29.7%
Max. Phagocytosis (%), donor B [3]: 29%
EC50 [4]: 1.18 nM
EC50 [5]: 1.97 nM
Kd [6]: 1.4 nM
koff [6]: 0.000729 s⁻¹
kon [6]: 520000 M⁻¹ s⁻¹

B2: TY21447 (antibody, V domains shown)
VH: EVQLVESGGGLVQPGGSLRLSCAASGFTFSNYAIHWVRQAPGKGLEWVSAISGSGSSTYYADSVKGRFTISRDNSKNTLYLQLNSLRAEDTAVYYCARRGSYGFGAFDYWGQGTLVTVSS
VL: DIQLTQSPSSLSASVGDRVTITCRASQTIGRYLNWYQQKPGKAPKLLIYDASNRATGIPSRFSGSGSGTDFTLTISSLQPEDFATYYCQQRYPWPYTFGQGTKVEIKR
EC50 [7]: 0.33 nM
IC50 [8]: 3.12 nM

B3: TY21449 (antibody, V domains shown)
VH: B2 VH with N31G
VL: B2 VL
IC50 [8]: 3.18 nM

B4: TY21451 (antibody, V domains shown)
VH: EVQLVESGGGLVQPGGSLRLSCAASGFTFSDYWIHWVRQAPGKGLEWVSGISGAGGSTYYADSVKGRFTISRDNSKNTLYLQLNSLRAEDTAVYYCARLGDYWGQGTLVTVSS
VL: DIQLTQSPSSLSASVGDRVTITCRASQGISSVLAWYQQKPGKAPKLLIYAASTLQSGVPSRFSGSGSGTDFTLTISSLQPEDFATYYCQQYYSIPFTFGQGTKVEIKR
IC50 [8]: > 100 nM

B5: TY25032 (antibody, V domains shown)
VH: EVQLVESGGGLVQPGGSLRLSCAASGFTFTSYGIHWVRQAPGKGLEWVSAISGSGGSTYYADSVKGRFTISRDNSKNTLYLQLNSLRAEDTAVYYCARSGHAYDFDYWGQGTLVTVSS
VL: DIQLTQSPSSLSASVGDRVTITCRASQSVDFYGISFLDWYQQKPGKAPKLLIYAASTLQSGVPSRFSGSGSGTDFTLTISSLQPEDFATYYCQQGGTSPWTFAQGTKVEIKR
Kd [9]: 2.73 nM
koff [9]: 0.000806 s⁻¹
kon [9]: 295000 M⁻¹ s⁻¹
